B1: CE115HA000 R16E (antibody, human IgG1, kappa, L234A L235A, N297A, name in Kabat numbering)
heavy: QVQLVESGGGVVQPGESLRLSCAASGFTFSNAWMHWVRQAPGKGLEWVAQIKAKSNNYATYYAESVKGRFTISRDDSKNSLYLQMNSLKTEDTAVYYCRYVHYGAYYGVDAWGQGTTVTVSSASTKGPSVFPLAPSSKSTSGGTAALGCLVKDYFPEPVTVSWNSGALTSGVHTFPAVLQSSGLYSLSSVVTVPSSSLGTQTYICNVNHKPSNTKVDKKVEPKSCDKTHTCPPCPAPEAAGGPSVFLFPPKPKDTLMISRTPEVTCVVVDVSHEDPEVKFNWYVDGVEVHNAKTKPREEQYASTYRVVSVLTVLHQDWLNGKEYKCKVSNKALPAPIEKTISKAKGQPREPQVYTLPPSRCELTKNQVSLSCAVKGFYPSDIAVEWESNGQPENNYKTTPPVLDSDGSFFLVSKLTVDKSRWQQGNVFSCSVMHEALHNHYTQKSLSLSPDYKDDDDK
chain: EPKSSDKTHTCPPCPAPELLGGPSVFLFPPKPKDTLMISRTPEVTCVVVDVSHEDPEVKFNWYVDGVEVHNAKTKPREEQYNSTYRVVSVLTVLHQDWLNGKEYKCKVSNKALPAPIEKTISKAKGQPREPQVCTLPPSRDELTKNQVSLWCLVKGFYPSDIAVEWESNGQPENNYKTTPPVLDSDGSFFLYSKLTVDKSRWQQGNVFSCSVMHEALHNRYTQKSLSLSP
light: DIVMTQSPLSLPVTPGEPASISCRSSQSLVHSNRNTYLHWYQQKPGQAPRLLIYKVSNRFSGVPDRFSGSGSGTDFTLKISRVEAEDVGVYYCGQGTQVPYTFGQGTKLEIKRTVAAPSVFIFPPSDEQLKSGTASVVCLLNNFYPREAKVQWKVDNALQSGNSQESVTEQDSKDSTYSLSSTLTLSKADYEKHKVYACEVTHQGLSSPVTKSFNRGEC
notes: one-arm antibody
B2: CE115HA000 S52cA (antibody, human IgG1, kappa, L234A L235A, N297A, name in Kabat numbering)
heavy: QVQLVESGGGVVQPGRSLRLSCAASGFTFSNAWMHWVRQAPGKGLEWVAQIKAKANNYATYYAESVKGRFTISRDDSKNSLYLQMNSLKTEDTAVYYCRYVHYGAYYGVDAWGQGTTVTVSSASTKGPSVFPLAPSSKSTSGGTAALGCLVKDYFPEPVTVSWNSGALTSGVHTFPAVLQSSGLYSLSSVVTVPSSSLGTQTYICNVNHKPSNTKVDKKVEPKSCDKTHTCPPCPAPEAAGGPSVFLFPPKPKDTLMISRTPEVTCVVVDVSHEDPEVKFNWYVDGVEVHNAKTKPREEQYASTYRVVSVLTVLHQDWLNGKEYKCKVSNKALPAPIEKTISKAKGQPREPQVYTLPPSRCELTKNQVSLSCAVKGFYPSDIAVEWESNGQPENNYKTTPPVLDSDGSFFLVSKLTVDKSRWQQGNVFSCSVMHEALHNHYTQKSLSLSPDYKDDDDK
chain: EPKSSDKTHTCPPCPAPELLGGPSVFLFPPKPKDTLMISRTPEVTCVVVDVSHEDPEVKFNWYVDGVEVHNAKTKPREEQYNSTYRVVSVLTVLHQDWLNGKEYKCKVSNKALPAPIEKTISKAKGQPREPQVCTLPPSRDELTKNQVSLWCLVKGFYPSDIAVEWESNGQPENNYKTTPPVLDSDGSFFLYSKLTVDKSRWQQGNVFSCSVMHEALHNRYTQKSLSLSP
light: DIVMTQSPLSLPVTPGEPASISCRSSQSLVHSNRNTYLHWYQQKPGQAPRLLIYKVSNRFSGVPDRFSGSGSGTDFTLKISRVEAEDVGVYYCGQGTQVPYTFGQGTKLEIKRTVAAPSVFIFPPSDEQLKSGTASVVCLLNNFYPREAKVQWKVDNALQSGNSQESVTEQDSKDSTYSLSSTLTLSKADYEKHKVYACEVTHQGLSSPVTKSFNRGEC
notes: one-arm antibody
B3: CE115HA000 S30D (antibody, human IgG1, kappa, L234A L235A, N297A, name in Kabat numbering)
heavy: QVQLVESGGGVVQPGRSLRLSCAASGFTFDNAWMHWVRQAPGKGLEWVAQIKAKSNNYATYYAESVKGRFTISRDDSKNSLYLQMNSLKTEDTAVYYCRYVHYGAYYGVDAWGQGTTVTVSSASTKGPSVFPLAPSSKSTSGGTAALGCLVKDYFPEPVTVSWNSGALTSGVHTFPAVLQSSGLYSLSSVVTVPSSSLGTQTYICNVNHKPSNTKVDKKVEPKSCDKTHTCPPCPAPEAAGGPSVFLFPPKPKDTLMISRTPEVTCVVVDVSHEDPEVKFNWYVDGVEVHNAKTKPREEQYASTYRVVSVLTVLHQDWLNGKEYKCKVSNKALPAPIEKTISKAKGQPREPQVYTLPPSRCELTKNQVSLSCAVKGFYPSDIAVEWESNGQPENNYKTTPPVLDSDGSFFLVSKLTVDKSRWQQGNVFSCSVMHEALHNHYTQKSLSLSPDYKDDDDK
chain: EPKSSDKTHTCPPCPAPELLGGPSVFLFPPKPKDTLMISRTPEVTCVVVDVSHEDPEVKFNWYVDGVEVHNAKTKPREEQYNSTYRVVSVLTVLHQDWLNGKEYKCKVSNKALPAPIEKTISKAKGQPREPQVCTLPPSRDELTKNQVSLWCLVKGFYPSDIAVEWESNGQPENNYKTTPPVLDSDGSFFLYSKLTVDKSRWQQGNVFSCSVMHEALHNRYTQKSLSLSP
light: DIVMTQSPLSLPVTPGEPASISCRSSQSLVHSNRNTYLHWYQQKPGQAPRLLIYKVSNRFSGVPDRFSGSGSGTDFTLKISRVEAEDVGVYYCGQGTQVPYTFGQGTKLEIKRTVAAPSVFIFPPSDEQLKSGTASVVCLLNNFYPREAKVQWKVDNALQSGNSQESVTEQDSKDSTYSLSSTLTLSKADYEKHKVYACEVTHQGLSSPVTKSFNRGEC
notes: one-arm antibody
B4: CE115HA000 R19T (antibody, human IgG1, kappa, L234A L235A, N297A, name in Kabat numbering)
heavy: QVQLVESGGGVVQPGRSLTLSCAASGFTFSNAWMHWVRQAPGKGLEWVAQIKAKSNNYATYYAESVKGRFTISRDDSKNSLYLQMNSLKTEDTAVYYCRYVHYGAYYGVDAWGQGTTVTVSSASTKGPSVFPLAPSSKSTSGGTAALGCLVKDYFPEPVTVSWNSGALTSGVHTFPAVLQSSGLYSLSSVVTVPSSSLGTQTYICNVNHKPSNTKVDKKVEPKSCDKTHTCPPCPAPEAAGGPSVFLFPPKPKDTLMISRTPEVTCVVVDVSHEDPEVKFNWYVDGVEVHNAKTKPREEQYASTYRVVSVLTVLHQDWLNGKEYKCKVSNKALPAPIEKTISKAKGQPREPQVYTLPPSRCELTKNQVSLSCAVKGFYPSDIAVEWESNGQPENNYKTTPPVLDSDGSFFLVSKLTVDKSRWQQGNVFSCSVMHEALHNHYTQKSLSLSPDYKDDDDK
chain: EPKSSDKTHTCPPCPAPELLGGPSVFLFPPKPKDTLMISRTPEVTCVVVDVSHEDPEVKFNWYVDGVEVHNAKTKPREEQYNSTYRVVSVLTVLHQDWLNGKEYKCKVSNKALPAPIEKTISKAKGQPREPQVCTLPPSRDELTKNQVSLWCLVKGFYPSDIAVEWESNGQPENNYKTTPPVLDSDGSFFLYSKLTVDKSRWQQGNVFSCSVMHEALHNRYTQKSLSLSP
light: DIVMTQSPLSLPVTPGEPASISCRSSQSLVHSNRNTYLHWYQQKPGQAPRLLIYKVSNRFSGVPDRFSGSGSGTDFTLKISRVEAEDVGVYYCGQGTQVPYTFGQGTKLEIKRTVAAPSVFIFPPSDEQLKSGTASVVCLLNNFYPREAKVQWKVDNALQSGNSQESVTEQDSKDSTYSLSSTLTLSKADYEKHKVYACEVTHQGLSSPVTKSFNRGEC
notes: one-arm antibody
B5: CE115HA000 R16Q (antibody, human IgG1, kappa, L234A L235A, N297A, name in Kabat numbering)
heavy: QVQLVESGGGVVQPGQSLRLSCAASGFTFSNAWMHWVRQAPGKGLEWVAQIKAKSNNYATYYAESVKGRFTISRDDSKNSLYLQMNSLKTEDTAVYYCRYVHYGAYYGVDAWGQGTTVTVSSASTKGPSVFPLAPSSKSTSGGTAALGCLVKDYFPEPVTVSWNSGALTSGVHTFPAVLQSSGLYSLSSVVTVPSSSLGTQTYICNVNHKPSNTKVDKKVEPKSCDKTHTCPPCPAPEAAGGPSVFLFPPKPKDTLMISRTPEVTCVVVDVSHEDPEVKFNWYVDGVEVHNAKTKPREEQYASTYRVVSVLTVLHQDWLNGKEYKCKVSNKALPAPIEKTISKAKGQPREPQVYTLPPSRCELTKNQVSLSCAVKGFYPSDIAVEWESNGQPENNYKTTPPVLDSDGSFFLVSKLTVDKSRWQQGNVFSCSVMHEALHNHYTQKSLSLSPDYKDDDDK
chain: EPKSSDKTHTCPPCPAPELLGGPSVFLFPPKPKDTLMISRTPEVTCVVVDVSHEDPEVKFNWYVDGVEVHNAKTKPREEQYNSTYRVVSVLTVLHQDWLNGKEYKCKVSNKALPAPIEKTISKAKGQPREPQVCTLPPSRDELTKNQVSLWCLVKGFYPSDIAVEWESNGQPENNYKTTPPVLDSDGSFFLYSKLTVDKSRWQQGNVFSCSVMHEALHNRYTQKSLSLSP
light: DIVMTQSPLSLPVTPGEPASISCRSSQSLVHSNRNTYLHWYQQKPGQAPRLLIYKVSNRFSGVPDRFSGSGSGTDFTLKISRVEAEDVGVYYCGQGTQVPYTFGQGTKLEIKRTVAAPSVFIFPPSDEQLKSGTASVVCLLNNFYPREAKVQWKVDNALQSGNSQESVTEQDSKDSTYSLSSTLTLSKADYEKHKVYACEVTHQGLSSPVTKSFNRGEC
notes: one-arm antibody
B6: CE115HA000 S30G (antibody, human IgG1, kappa, L234A L235A, N297A, name in Kabat numbering)
heavy: QVQLVESGGGVVQPGRSLRLSCAASGFTFGNAWMHWVRQAPGKGLEWVAQIKAKSNNYATYYAESVKGRFTISRDDSKNSLYLQMNSLKTEDTAVYYCRYVHYGAYYGVDAWGQGTTVTVSSASTKGPSVFPLAPSSKSTSGGTAALGCLVKDYFPEPVTVSWNSGALTSGVHTFPAVLQSSGLYSLSSVVTVPSSSLGTQTYICNVNHKPSNTKVDKKVEPKSCDKTHTCPPCPAPEAAGGPSVFLFPPKPKDTLMISRTPEVTCVVVDVSHEDPEVKFNWYVDGVEVHNAKTKPREEQYASTYRVVSVLTVLHQDWLNGKEYKCKVSNKALPAPIEKTISKAKGQPREPQVYTLPPSRCELTKNQVSLSCAVKGFYPSDIAVEWESNGQPENNYKTTPPVLDSDGSFFLVSKLTVDKSRWQQGNVFSCSVMHEALHNHYTQKSLSLSPDYKDDDDK
chain: EPKSSDKTHTCPPCPAPELLGGPSVFLFPPKPKDTLMISRTPEVTCVVVDVSHEDPEVKFNWYVDGVEVHNAKTKPREEQYNSTYRVVSVLTVLHQDWLNGKEYKCKVSNKALPAPIEKTISKAKGQPREPQVCTLPPSRDELTKNQVSLWCLVKGFYPSDIAVEWESNGQPENNYKTTPPVLDSDGSFFLYSKLTVDKSRWQQGNVFSCSVMHEALHNRYTQKSLSLSP
light: DIVMTQSPLSLPVTPGEPASISCRSSQSLVHSNRNTYLHWYQQKPGQAPRLLIYKVSNRFSGVPDRFSGSGSGTDFTLKISRVEAEDVGVYYCGQGTQVPYTFGQGTKLEIKRTVAAPSVFIFPPSDEQLKSGTASVVCLLNNFYPREAKVQWKVDNALQSGNSQESVTEQDSKDSTYSLSSTLTLSKADYEKHKVYACEVTHQGLSSPVTKSFNRGEC
notes: one-arm antibody

biological target: T1, CD3 epsilon homodimer protein (UniProt P07766 23-126); assay: SPR, CD3 epsilon homodimer on chip, one-arm antibody as analyte;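 note: surface plasmon resonance at 25 °C with CD3 epsilon homodimer amine-coupled to a CM4 sensor chip, antibody injected as analyte, HBS-EP+ as running buffer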
T1 construct: also called CD3 (CD3 epsilon)
T1 sequence (P07766 23-126): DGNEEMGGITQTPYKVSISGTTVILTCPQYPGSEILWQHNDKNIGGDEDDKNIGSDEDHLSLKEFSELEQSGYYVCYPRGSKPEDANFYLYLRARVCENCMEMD
Experimental: An appropriate amount of CD3 epsilon homodimer protein was immobilized onto Sensor chip CM4 (GE Healthcare Japan Corp.) by the amine coupling method. Then, the antibody having an appropriate concentration was injected thereto as an analyte and allowed to interact with the CD3 epsilon homodimer protein on the sensor chip. Then, the sensor chip was regenerated by the injection of 10 mmol/L glycine-HCl (pH 1.5). The assay was conducted at 25 degrees C., and HBS-EP+(GE Healthcare Japan Corp.) was used as a running buffer. […] Each parameter was calculated using Biacore T200 Evaluation Software (GE Healthcare Japan Corp.).

First: B1
Second: B2
The “KD ratio (KD of CE115HA000/KD of altered form)” value (from here on “KD ratio”) of the first is lower: 0.74 for the first, 0.87 for the second.

Compared with B3, B4 is higher in “KD ratio” value: 0.79 for the first, 0.81 for the second.

Compared with B5, B6 is higher in “KD ratio” value: 0.87 for the first, 0.93 for the second.

— patent US20210388087A1 (Chugai, published 2021)
